Results from PMC2965227.
Like-named read-outs stand apart in the source and are kept apart here.

B1: LEF1 P2 wild-type probe (+13 to +37) (dsDNA)
DNA 1: AAAGCATCCAGATGGAGGCCTCTAC
DNA 2: GTAGAGGCCTCCATCTGGATGCTTT
B2: LEF1 P2 YY1-site mutant probe (ATG to CGT) (dsDNA)
DNA 1: AAAGCATCCAGCGTGAGGCCTCTAC
DNA 2: GTAGAGGCCTCACGCTGGATGCTTT

How the values were obtained:
YY1 (Yin Yang 1) [1] = biological target: T1, YY1 (Yin Yang 1) (human, UniProt P25490 1-414); test: EMSA
YY1 (Yin Yang 1) [2] = biological target: T1, YY1 (Yin Yang 1); test: EMSA; remark: listed apart in the source

T1 sequence (P25490 whole entry): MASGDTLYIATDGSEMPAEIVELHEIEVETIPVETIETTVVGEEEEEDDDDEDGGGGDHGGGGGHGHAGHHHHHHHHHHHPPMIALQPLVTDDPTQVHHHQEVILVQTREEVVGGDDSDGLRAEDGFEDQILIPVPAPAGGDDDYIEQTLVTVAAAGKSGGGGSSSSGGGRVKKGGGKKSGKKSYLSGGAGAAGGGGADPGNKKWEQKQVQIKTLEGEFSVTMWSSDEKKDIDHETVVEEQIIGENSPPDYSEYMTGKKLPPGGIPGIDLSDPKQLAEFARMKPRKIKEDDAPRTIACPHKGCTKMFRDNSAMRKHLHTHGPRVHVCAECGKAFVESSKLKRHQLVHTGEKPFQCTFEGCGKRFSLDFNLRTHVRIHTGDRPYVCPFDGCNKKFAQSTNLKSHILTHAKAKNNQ

Binder	binding result (YY1 (Yin Yang 1) [1])	binding result (YY1 (Yin Yang 1) [2])
B1	binds	–
B2	–	no binding
